The supplement of paper PMC10567573

B1: EPB41L3 (parent)
chain: FRFAPNHTKELEDKVIELHKSHRG

Variants of: B1
Assay: protein stability index of a GFP-peptide fusion (GPS, HEK-293T) (PSI 1-6); higher = more stable
Conditions: c terminus: a fixed tail appended
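Note: lentivirally expressed fusions sorted by FACS into six bins by GFP to DsRed ratio, PSI derived from sequencing read proportions per bin multiplied by bin number.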

In order of rising protein stability index:
1. FRFAPNHTKELEDKVIEYHKSHRG [L18Y]  1.36
2. FRFAPNHTKELEDKVIELHKSHRC [G24C]  1.36
3. FRFAPNHTTELEDKVIELHKSHRG [K9T]  1.37
4. FRFAPNHTLELEDKVIELHKSHRG [K9L]  1.47
5. FRFAPNHTKELEDKVIELHKSHFG [R23F]  1.5
6. FRFAPIHTKELEDKVIELHKSHRG [N6I]  1.55
7. FRFAPNWTKELEDKVIELHKSHRG [H7W]  1.6
8. FRFAPNHTKELEDKVIELHKSHRT [G24T]  1.73
9. FRFAPNFTKELEDKVIELHKSHRG [H7F]  1.73
10. FRFAPNHTKELEDKVIELHKSHRV [G24V]  1.74
11. FRFAPNHTKELEDKVIEWHKSHRG [L18W]  1.78
12. FRFAPNHTKHLEDKVIELHKSHRG [E10H]  1.81
13. FRFAPNHWKELEDKVIELHKSHRG [T8W]  1.84
14. FRFAPNHTKELEDKVIELHKSHRW [G24W]  1.84
15. FRFAPNHTKTLEDKVIELHKSHRG [E10T]  1.84
16. FRFAPNHGKELEDKVIELHKSHRG [T8G]  1.86
17. FRFAPNHTKELEDKVIEPHKSHRG [L18P]  1.89
18. FRFAPNHTKLLEDKVIELHKSHRG [E10L]  1.9
19. FRFAPNTTKELEDKVIELHKSHRG [H7T]  1.91
20. FRFASNHTKELEDKVIELHKSHRG [P5S]  1.92
21. FRFAPNHTKELEDKVIELHKSHLG [R23L]  1.92
22. FRFAPNHSKELEDKVIELHKSHRG [T8S]  1.92
23. FRFAPNHTKELEDKVIELHKSHPG [R23P]  1.93
24. FRFAPNHTKELEDKWIELHKSHRG [V15W]  1.93
25. FRFAPNHTKELEDKVIELHKSHRA [G24A]  1.93
26. FRFAPNHTKELEDKVIELHKSHRS [G24S]  1.94
27. FRFAPNHTKELEDKRIELHKSHRG [V15R]  1.95
28. FRFAPNHTKELEDKVIELHKSHRH [G24H]  1.97
29. FRFAPNHVKELEDKVIELHKSHRG [T8V]  1.98
30. FRFAPNHCKELEDKVIELHKSHRG [T8C]  2.02
31. FRFAPNHTKELEDKVIELHKSHRR [G24R]  2.05
32. FRFAPNHTKELEDKVIELHKSHRK [G24K]  2.06
33. FRFAQNHTKELEDKVIELHKSHRG [P5Q]  2.07
34. FRFAPNITKELEDKVIELHKSHRG [H7I]  2.09
35. FRFAPNHTQELEDKVIELHKSHRG [K9Q]  2.11
36. FRFAPNRTKELEDKVIELHKSHRG [H7R]  2.11
37. FRFARNHTKELEDKVIELHKSHRG [P5R]  2.15
38. FRFAPNNTKELEDKVIELHKSHRG [H7N]  2.16
39. FRFAPSHTKELEDKVIELHKSHRG [N6S]  2.17
40. FRFAPNHNKELEDKVIELHKSHRG [T8N]  2.17
41. FRFAPNHTVELEDKVIELHKSHRG [K9V]  2.24
42. FRFAPNHTKELEDKCIELHKSHRG [V15C]  2.24
43. FRFIPNHTKELEDKVIELHKSHRG [A4I]  2.24
44. FRFAPNHTKELEDKNIELHKSHRG [V15N]  2.27
45. FRFAPNHFKELEDKVIELHKSHRG [T8F]  2.3
46. FRFAPNMTKELEDKVIELHKSHRG [H7M]  2.3
47. FRFAPNHTKELEDKVIELHKSHRE [G24E]  2.34
48. FRFAPNHTKELEDKVIEIHKSHRG [L18I]  2.35
49. FVFAPNHTKELEDKVIELHKSHRG [R2V]  2.36
50. FRFAPLHTKELEDKVIELHKSHRG [N6L]  2.37
51. FRFAPNHTKELEDKHIELHKSHRG [V15H]  2.38
52. FRFAPNHTKELEDKAIELHKSHRG [V15A]  2.38
53. FRFAPNHKKELEDKVIELHKSHRG [T8K]  2.39
54. FRFACNHTKELEDKVIELHKSHRG [P5C]  2.4
55. FRFAPNHTKELEDKVIELHKSHRN [G24N]  2.45
56. FRFAPNHTKELEDKFIELHKSHRG [V15F]  2.46
57. FRFAPNHTKELEDKTIELHKSHRG [V15T]  2.47
58. FRFAPNHIKELEDKVIELHKSHRG [T8I]  2.49
59. FRFAPNHTKELEDKVIESHKSHRG [L18S]  2.51
60. FRFAPNHTKELEDKVIEQHKSHRG [L18Q]  2.53
61. FRFAPNHTKELEDKVIEKHKSHRG [L18K]  2.6
62. FRFAINHTKELEDKVIELHKSHRG [P5I]  2.63
63. FRFAPNHTKELEDKVIERHKSHRG [L18R]  2.75
64. FRFALNHTKELEDKVIELHKSHRG [P5L]  2.75
65. FRFAPNHTKELEDKIIELHKSHRG [V15I]  2.75
66. FRFAPNHTKELEDKVIELHKSHYG [R23Y]  2.78
67. FFFAPNHTKELEDKVIELHKSHRG [R2F]  2.81
68. FRFLPNHTKELEDKVIELHKSHRG [A4L]  2.82
69. FRFAPNATKELEDKVIELHKSHRG [H7A]  2.83
70. FRFAPNHTKELEDKVIELHKSHDG [R23D]  2.84
71. FRFAPNHTSELEDKVIELHKSHRG [K9S]  2.88
72. FRFYPNHTKELEDKVIELHKSHRG [A4Y]  2.88
73. FRFAPNHTKELEDKVIECHKSHRG [L18C]  2.9
74. FRFAPNHTKELEDKDIELHKSHRG [V15D]  2.92
75. FRWAPNHTKELEDKVIELHKSHRG [F3W]  2.97
76. FRFKPNHTKELEDKVIELHKSHRG [A4K]  3.06
77. FRFAPNHTKELEDKVIELHKSHEG [R23E]  3.15
78. FRFAPEHTKELEDKVIELHKSHRG [N6E]  3.17
79. FRFFPNHTKELEDKVIELHKSHRG [A4F]  3.19
80. FRFRPNHTKELEDKVIELHKSHRG [A4R]  3.33
81. FRFAKNHTKELEDKVIELHKSHRG [P5K]  3.47
82. FRLAPNHTKELEDKVIELHKSHRG [F3L]  3.48
83. FAFAPNHTKELEDKVIELHKSHRG [R2A]  3.49
84. FDFAPNHTKELEDKVIELHKSHRG [R2D]  3.5
85. FRFAPNHTKELEDKVIELHKSHGG [R23G]  3.6
86. FRAAPNHTKELEDKVIELHKSHRG [F3A]  3.78
87. FTFAPNHTKELEDKVIELHKSHRG [R2T]  3.79
88. FKFAPNHTKELEDKVIELHKSHRG [R2K]  3.81
89. FRFDPNHTKELEDKVIELHKSHRG [A4D]  3.9
90. FRTAPNHTKELEDKVIELHKSHRG [F3T]  3.99
91. FRQAPNHTKELEDKVIELHKSHRG [F3Q]  4.16
92. FRPAPNHTKELEDKVIELHKSHRG [F3P]  4.25
93. FRDAPNHTKELEDKVIELHKSHRG [F3D]  4.48
94. FRGAPNHTKELEDKVIELHKSHRG [F3G]  4.63
